{
  "source": "patent US20260098102A1",
  "about": "(NATIONAL UNIVERSITY CORPORATION KOBE UNIVERSITY, published 2026)",
  "binders": {"B1": {"name": "ADU-1805 (antibody, human IgG2, kappa, V domains shown)", "VH": "EVQLVQSGAEVVKPGASVKLSCKASGSTFTSYWMHWVKQAPGQGLEWIGAIYPVNSDTTYNQKFKGKATLTVDKSASTAYMELSSLRSEDTAVYYCTRSFYYSLDAAWFVYWGQGTLVTVSS", "VL": "DIQMTQSPSSLSASVGDRVTITCRASQDIGSRLNWLQQKPGKAPKRLIYATSSLDSGVPSRFSGSGSGTEFTLTISSLQPEDFATYYCLQYASSPFTFGGGTKVEIKR", "notes": "IgG2 heavy chain; also called ADU-1805_hG2 / ADU-1805_hK"}, "B2": {"name": "KWAR23 (antibody, human IgG4 S228P, kappa, V domains shown)", "VH": "EVQLQQSGAELVKPGASVKLSCTASGFNIKDYYIHWVQQRTEQGLEWIGRIDPEDGETKYAPKFQDKATITADTSSNTAYLHLSSLTSEDTAVYYCARWGAYWGQGTLVTVSA", "VL": "QIVLTQSPAIMSASPGEKVTLTCSASSSVSSSYLYWYQQKPGSSPKLWIYSTSNLASGVPARFSGSGSGTSYSLTISSMEAEDAASYFCHQWSSYPRTFGAGTKLELKR", "notes": "IgG4Pro heavy chain; also called KWAR23_hG4Pro / KWAR23_hK"}},
  "key": {"human SIRPB": {"biological_target": "T1, human SIRPB (human, UniProt O00241 30-398)", "T1 construct": "whole, on cells; FLAG-tagged (pFLAG V5-DEST), on CHO-K1 cells; also called SIRPβ1; signal regulatory protein β1", "T1 sequence (O00241 30-398)": "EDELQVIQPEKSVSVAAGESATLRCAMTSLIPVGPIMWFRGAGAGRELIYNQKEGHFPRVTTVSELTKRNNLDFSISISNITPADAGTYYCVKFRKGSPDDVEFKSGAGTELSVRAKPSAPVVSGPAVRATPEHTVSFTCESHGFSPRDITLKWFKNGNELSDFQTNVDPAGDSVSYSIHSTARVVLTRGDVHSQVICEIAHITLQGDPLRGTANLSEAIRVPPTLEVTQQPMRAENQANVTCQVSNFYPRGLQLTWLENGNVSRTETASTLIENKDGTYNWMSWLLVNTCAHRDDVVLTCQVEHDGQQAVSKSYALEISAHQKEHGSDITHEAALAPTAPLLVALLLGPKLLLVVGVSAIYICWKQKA", "test": "flow cytometry on CHO-K1 cells expressing FLAG-tagged human SIRPB; PE anti-human IgG; MFI standardized to secondary antibody alone", "method": "SIRPβ1 (signal regulatory protein β1: the amino acid sequence thereof is published as RefSeq accession number NP_006056) and SIRPγ (signal regulatory protein γ: the amino acid sequence thereof is published as RefSeq accession number NP_061026) are molecules belonging to the SIRPA family. In the present invention, “SIRPα” may be referred to as “SIRPA,” “SIRPβ1” may be referred to as […] and “SIRPγ” may be referred to as “SIRPG.” CHO-K1 cells were prepared in a 10% FBS-containing Ham's F-12K medium at 3.3×10⁵ cells/mL and cultured overnight at 37° C. under a 5% CO₂ condition. pFLAG V5-DEST-human SIRPβ, pFLAG V5-DEST-human SIRPG, or pFLAG V5-DEST was introduced into the cells using Lipofectamine LTX (Invitrogen), and cells were cultured in a 10% FBS-containing Ham's F-12K medium at 37° C. under a 5% CO₂ condition for 24 hours. The obtained introduced cells were collected and seeded on a 96-well plate. After the culture supernatant was removed, 100 μL per well of various anti-human SIRPA antibodies or various control human IgG was added to each of various gene introduced cells at a final concentration of 0 to 10,000 ng/mL, and the mixture was allowed to stand at 4° C. for 25 minutes. After the mixture was centrifuged, the supernatant was removed, and cells were washed twice with 5% FBS-containing PBS. After the mixture was centrifuged, the supernatant was removed, 50 μL per well of a 1/400 diluted solution of PE Mouse anti-Human IgG antibody (BioLegend) was added, and the mixture was allowed to stand at 4° C. for 25 minutes. After the mixture was centrifuged, the supernatant was removed, and cells were washed twice with 5% FBS-containing PBS.\n(§1) After the mixture was centrifuged, and the supernatant was removed, cells were suspended in 100 μL per well of 1× BD Stabilizing Fixative (Becton Dickinson), and the cell count was measured by flow cytometry (FACS Canto II: Becton Dickinson). For data analysis, FlowJo (TreeStar) was used. Cells were characterized by detecting forward scattered (FSC) light and side-scattered (SSC) light, and then the mean fluorescence intensity of PE was calculated. Binding of various antibodies to the family molecules was calculated by standardizing the fluorescence intensity using the mean fluorescence intensity of a sample in which the secondary antibody alone was allowed to react."}, "human SIRPA_V2 protein": {"biological_target": "T2, human SIRPA_V2 protein (human, UniProt P78324 31-504)", "T2 construct": "Expressed on 293α cells from pcDNA3.2 V5-DEST or pFLAG V5-DEST (FLAG-tagged) vectors; also called human SIRPA Variant 2; ECD variant (full-length, amino acids 1 to 504)", "T2 sequence (P78324 other isoform, or with tags, fused parts or gaps limits assumed)": "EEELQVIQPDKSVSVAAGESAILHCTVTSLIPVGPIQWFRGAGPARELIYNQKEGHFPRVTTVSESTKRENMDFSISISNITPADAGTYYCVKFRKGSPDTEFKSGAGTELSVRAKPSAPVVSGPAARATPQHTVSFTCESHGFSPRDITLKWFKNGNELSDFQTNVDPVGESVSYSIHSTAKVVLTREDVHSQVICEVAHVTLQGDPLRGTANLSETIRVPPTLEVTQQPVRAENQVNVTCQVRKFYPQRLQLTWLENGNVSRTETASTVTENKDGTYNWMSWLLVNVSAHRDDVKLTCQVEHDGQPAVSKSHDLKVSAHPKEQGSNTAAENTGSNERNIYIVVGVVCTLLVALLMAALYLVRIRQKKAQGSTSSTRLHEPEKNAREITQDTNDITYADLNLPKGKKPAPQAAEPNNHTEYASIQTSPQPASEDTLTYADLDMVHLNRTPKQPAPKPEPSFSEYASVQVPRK", "test": "blocking cell-based ELISA: peroxidase-labeled CD47-Fc (1 µg/mL) on 293α cells expressing SIRPA_V2", "method": "(§2) After the culture supernatant of the human SIRPA_V1 or V2 expression vector-introduced 293 cells prepared in Example 9)-1 was removed, 50 μL per well of various anti-SIRPA antibodies or various control Human IgG diluted with 5% FBS-containing PBS to a final concentration of 0 to 10,000 ng/ml was added to each of pcDNA3.2 V5-DEST-SIRPA_V1 or V2-introduced 293α cells, immediately followed by addition of 50 µL per well of peroxidase-labeled CD47-Fc prepared with 5% FBS-containing PBS at 1 μg/mL, and the mixture was allowed to stand at 4° C. for one hour. Thereafter, the SIRPA-CD47 binding inhibitory activity was evaluated in the same manner as in 1)-6-3."}, "SIRPA_V2_IgV": {"biological_target": "T3, SIRPA_V2_IgV (human)", "T3 construct": "Secreted recombinant protein; The crystal model held residues 33 to 143 of human SIRPA Variant 2", "T3 sequence (chain, as listed by the source limits assumed)": "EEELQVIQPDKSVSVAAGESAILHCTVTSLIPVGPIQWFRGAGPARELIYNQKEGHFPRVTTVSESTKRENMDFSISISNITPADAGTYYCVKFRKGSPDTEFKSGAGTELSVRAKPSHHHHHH", "test": "SPR Biacore T200, antibody captured on anti-human IgG (Fc), SIRPA_V2_IgV as analyte (0.25 to 16 nM), 1:1 model", "method": "(§3) The dissociation constants were measured by a capture method comprising capturing each antibody as a ligand to an Anti-Human IgG (Fc) antibody immobilized using Human Antibody Capture Kit (GE Healthcare Bioscience Corp.) and measuring an antigen as an analyte, using Biacore T200 (GE Healthcare Bioscience Corp.). HBS-EP+ (GE Healthcare Bioscience Corp.) was used as a running buffer, and CM5 (GE Healthcare Bioscience Corp.) was used as a sensor chip. Onto the chip, 2 μg/mL of various antibodies were added at 10 μL/min for 30 seconds, then a serially diluted solution (0.25 to 16 nM) of the human SIRPA protein as an antigen was added at a flow rate of 30 μL/min for 120 seconds, and subsequently the dissociation phase for 600 seconds was monitored. As a regenerant, 3 M magnesium chloride (GE Healthcare Bioscience Corp.) was added at a flow rate of 20 μL/min for 30 seconds. For data analysis, a binding rate constant (ka), a dissociation rate constant (kd), and a dissociation constant (KD; KD=kd/ka) were calculated using a 1:1 binding model."}, "SIRPA_V1_IgV": {"biological_target": "T4, SIRPA_V1_IgV (human, UniProt P78324 31-149)", "T4 construct": "Secreted recombinant protein from FreeStyle 293F cells", "T4 sequence (P78324 other isoform, or with tags, fused parts or gaps limits assumed)": "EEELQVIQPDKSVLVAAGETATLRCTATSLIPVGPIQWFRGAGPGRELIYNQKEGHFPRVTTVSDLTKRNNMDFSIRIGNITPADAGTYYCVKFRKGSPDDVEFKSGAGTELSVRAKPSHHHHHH", "test": "SPR Biacore T200, antibody captured on anti-human IgG (Fc), SIRPA_V1_IgV as analyte (0.25 to 16 nM), 1:1 model", "method": "as §3"}, "human SIRPG": {"biological_target": "T5, human SIRPG (human, UniProt Q9P1W8 29-387)", "T5 construct": "whole, on cells; FLAG-tagged (pFLAG V5-DEST), on CHO-K1 cells; also called SIRPγ; signal regulatory protein γ", "T5 sequence (Q9P1W8 29-387)": "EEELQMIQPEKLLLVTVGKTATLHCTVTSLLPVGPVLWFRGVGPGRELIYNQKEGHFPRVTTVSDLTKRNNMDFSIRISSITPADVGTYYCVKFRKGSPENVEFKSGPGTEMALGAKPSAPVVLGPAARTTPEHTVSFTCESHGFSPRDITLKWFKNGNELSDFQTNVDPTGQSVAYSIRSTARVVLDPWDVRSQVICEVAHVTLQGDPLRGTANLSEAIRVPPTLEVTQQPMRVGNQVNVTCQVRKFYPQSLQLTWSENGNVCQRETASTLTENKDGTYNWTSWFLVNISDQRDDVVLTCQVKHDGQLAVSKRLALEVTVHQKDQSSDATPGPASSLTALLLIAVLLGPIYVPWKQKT", "test": "flow cytometry on CHO-K1 cells expressing FLAG-tagged human SIRPG; PE anti-human IgG; MFI standardized to secondary antibody alone", "method": "SIRPβ1 (signal regulatory protein β1: the amino acid sequence thereof is published as RefSeq accession number NP_006056) and SIRPγ (signal regulatory protein γ: the amino acid sequence thereof is published as RefSeq accession number NP_061026) are molecules belonging to the SIRPA family. In the present invention, “SIRPα” may be referred to as “SIRPA,” “SIRPβ1” may be referred to as […] and “SIRPγ” may be referred to as “SIRPG.” CHO-K1 cells were prepared in a 10% FBS-containing Ham's F-12K medium at 3.3×10⁵ cells/mL and cultured overnight at 37° C. under a 5% CO₂ condition. pFLAG V5-DEST-human SIRPβ, pFLAG V5-DEST-human SIRPG, or pFLAG V5-DEST was introduced into the cells using Lipofectamine LTX (Invitrogen), and cells were cultured in a 10% FBS-containing Ham's F-12K medium at 37° C. under a 5% CO₂ condition for 24 hours. The obtained introduced cells were collected and seeded on a 96-well plate. After the culture supernatant was removed, 100 μL per well of various anti-human SIRPA antibodies or various control human IgG was added to each of various gene introduced cells at a final concentration of 0 to 10,000 ng/mL, and the mixture was allowed to stand at 4° C. for 25 minutes. After the mixture was centrifuged, the supernatant was removed, and cells were washed twice with 5% FBS-containing PBS. […]\nas §1, with “For data analysis, FlowJo (TreeStar) was used.” left out"}, "human SIRPA_V1 protein": {"biological_target": "T6, human SIRPA_V1 protein (human, UniProt P78324 31-504)", "T6 construct": "Expressed on 293α cells from pcDNA3.2 V5-DEST or pFLAG V5-DEST (FLAG-tagged) vectors; also called human SIRPA Variant 1; hSIRPA V1", "T6 sequence (P78324 31-504 limits assumed)": "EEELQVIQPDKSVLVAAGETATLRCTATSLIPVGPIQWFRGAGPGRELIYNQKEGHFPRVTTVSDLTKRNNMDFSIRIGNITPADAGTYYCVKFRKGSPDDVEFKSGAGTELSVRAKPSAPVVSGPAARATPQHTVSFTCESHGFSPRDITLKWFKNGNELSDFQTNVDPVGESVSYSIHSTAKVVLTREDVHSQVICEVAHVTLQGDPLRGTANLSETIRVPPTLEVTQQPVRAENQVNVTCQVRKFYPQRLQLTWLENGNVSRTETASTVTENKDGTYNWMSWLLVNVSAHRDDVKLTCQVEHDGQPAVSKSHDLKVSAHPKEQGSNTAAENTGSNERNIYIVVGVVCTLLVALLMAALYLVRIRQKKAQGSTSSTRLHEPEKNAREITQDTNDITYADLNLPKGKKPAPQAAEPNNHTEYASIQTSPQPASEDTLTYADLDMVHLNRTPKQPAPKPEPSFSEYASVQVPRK", "test": "blocking cell-based ELISA: peroxidase-labeled CD47-Fc (1 µg/mL) on 293α cells expressing SIRPA_V1", "method": "as §2"}},
  "data": [
    {"binder": "B1", "values": [
      {"measurement": "EC50 (read off the curve)", "setting": "human SIRPB", "value": "~0.2", "unit": "µg/mL"},
      {"measurement": "IC50", "setting": "human SIRPA_V2 protein", "value": 2.12, "unit": "µg/mL"},
      {"measurement": "Kd", "setting": "SIRPA_V2_IgV", "value": 6.32, "unit": "nM"},
      {"measurement": "Kd", "setting": "SIRPA_V1_IgV", "value": 4.39, "unit": "nM"},
      {"measurement": "binding result", "setting": "human SIRPG", "value": "binds"},
      {"measurement": "IC50", "setting": "human SIRPA_V1 protein", "value": 2.97, "unit": "µg/mL"}
    ]},
    {"binder": "B2", "values": [
      {"measurement": "binding result", "setting": "human SIRPB", "value": "binds"},
      {"measurement": "IC50", "setting": "human SIRPA_V2 protein", "value": 2.19, "unit": "µg/mL"},
      {"measurement": "Kd", "setting": "SIRPA_V2_IgV", "value": 4.46, "unit": "nM"},
      {"measurement": "Kd", "setting": "SIRPA_V1_IgV", "value": 2.55, "unit": "nM"},
      {"measurement": "EC50 (read off the curve)", "setting": "human SIRPG", "value": "~0.03", "unit": "µg/mL"},
      {"measurement": "IC50", "setting": "human SIRPA_V1 protein", "value": 2.24, "unit": "µg/mL"}
    ]}
  ]
}
